Reference: ChEMBL document CHEMBL1137932, “Synthesis of S-alkyl L-homocysteine analogues of glutathione and their kinetic studies with gamma-glutamyl transpeptidase” (Bioorg Med Chem Lett, 2004)

Legend:
[1] = test system: NC(CC[S+]([O-])CCC(=O)NCC(=O)O)C(=O)O; assay: (§1) Michaelis-Menten constant for Gamma-glutamyltranspeptidase in rat kidney
[2] = test system: N[C@@H](CCS(=O)(=O)CCC(=O)NCC(=O)O)C(=O)O; assay: as §1

Glutathione hydrolase 1 proenzyme (Rattus norvegicus), P07314, sequence (P07314 whole entry): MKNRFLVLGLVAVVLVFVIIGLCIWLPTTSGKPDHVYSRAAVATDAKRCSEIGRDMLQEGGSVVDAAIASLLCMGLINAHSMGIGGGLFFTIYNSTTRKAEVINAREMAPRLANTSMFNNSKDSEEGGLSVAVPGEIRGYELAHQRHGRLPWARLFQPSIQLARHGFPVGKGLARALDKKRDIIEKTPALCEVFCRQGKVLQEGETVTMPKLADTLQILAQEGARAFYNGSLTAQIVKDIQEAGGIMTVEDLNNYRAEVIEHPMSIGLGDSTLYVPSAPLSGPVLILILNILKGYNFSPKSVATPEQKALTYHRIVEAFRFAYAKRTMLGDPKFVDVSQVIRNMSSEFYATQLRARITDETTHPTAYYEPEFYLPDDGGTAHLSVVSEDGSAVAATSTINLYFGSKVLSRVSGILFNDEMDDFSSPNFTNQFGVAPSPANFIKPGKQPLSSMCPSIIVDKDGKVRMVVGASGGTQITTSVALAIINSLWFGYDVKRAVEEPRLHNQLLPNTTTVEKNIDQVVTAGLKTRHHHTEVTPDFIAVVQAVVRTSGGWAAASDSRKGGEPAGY

Q: How did the Km [1] turn out when “Glutathione hydrolase 1 proenzyme (Rattus norvegicus), P07314” was run?
A: Its Km is 500 µM.

Q: And the Km [2]?
A: The Km was 590 µM.
